According to patent US20220162619:

System: T1, synthetic model peptide substrate PLVQ conjugated with 7-amino-4-methylcoumarin (AMC)
T1 sequence: PLVQ

| Substance | enzymatic (proteolytic) activity: hydrolysis of PLVQ-AMC, fluorescence of free AMC |
| --- | --- |
| recombinant truncated triticain-alpha with a C-terminal polyhistidine sequence, expressed in soluble form in E. coli | significantly exceeded the activity of the truncated triticain-alpha preparation 6HIS-Triticain-α-GM, obtained in an insoluble form, as well as that of papain |
| recombinant truncated triticain-alpha with an N-terminal polyhistidine sequence, expressed in soluble form in E. coli | significantly exceeded the activity of the truncated triticain-alpha preparation 6HIS-Triticain-α-GM, obtained in an insoluble form, as well as that of papain |
